B1: CopDED, extracellular two-PEPSY domain of CopD (Met38 to Leu162) (domain or fragment)
chain: SMKPYQTAKSEGEKLAQQYAGLEQADQVDLYNGLESYYSVLGRNKQQEALAVLIGKDDHKIYVYQLNQGISQEKAETVSKEKGAGEIDKITFGRYQDKPIWEVKSGSDFYLVDFETGALVNKEGL
modifications: labelled with the Protein labeling kit red NHS 2nd generation (Nanotemper)
B2: PBP2bTP, transpeptidase domain of PBP2b (Met39 to Asn685) (domain or fragment)
chain: MQVLNKDFYEKKLASASQTKITSSSARGEIYDASGKPLVENTLKQVVSFTRSNKMTATDLKETAKKLLTYVSISSPNLTERQLADYYLADPEIYKKIVEALPSEKRLDSDGNRLSESELYNNAVDSVQTSQLNYTEDEKKEIYLFSQLNAVGNFATGTIATDPLNDSQVAVIASISKEMPGISISTSWDRKVLETSLSSIVGSVSSEKAGLPAEEAEAYLKKGYSLNDRVGTSYLEKQYEETLQGKRSVKEIHLDKYGNMESVDTIEEGSKGNNIKLTIDLAFQDSVDALLKSYFNSELENGGAKYSEGVYAVALNPKTGAVLSMSGIKHDLKTGELTPDSLGTVTNVFVPGSVVKAATISSGWENGVLSGNQTLTDQSIVFQGSAPINSWYTQAYGSFPITAVQALEYSSNTYMVQTALGLMGQTYQPNMFVGTSNLESAMEKLRSTFGEYGLGTATGIDLPDESTGFVPKEYSFANYITNAFGQFDNYTPMQLAQYVATIANNGVRVAPRIVEGIYGNNDKGGLGDLIQQLQPTEMNKVNISDSDMSILHQGFYQVAHGTSGLTTGRAFSNGALVSISGKTGTAESYVADGQQATNTNAVAYAPSDNPQIAVAVVFPHNTNLTNGVGPSIARDIINLYQKYHPMN

Assays:
[1] = molecular target: T1, PBP1aTP, transpeptidase domain of PBP1a (Ser266 to Asn650) (S. pneumoniae R800 strain, UniProt Q8DR59 266-650); experiment: MST; Monolith NT.115; labelled CopDED at 168 nM, PBP2bTP 5.2 µM to 0.159 nM or PBP1aTP 4.5 µM to 0.137 nM; 20 mM HEPES pH 7.5, 300 mM NaCl, 10% glycerol, 0.1% Tween 20; 25°C; details: both partners purified
T1 construct: also called PBP1aTP-6his; source: E. coli BL21 star (DE3), purified (Ni-NTA; extracellular domain digested by trypsin; gel filtration)
T1 sequence (looked up): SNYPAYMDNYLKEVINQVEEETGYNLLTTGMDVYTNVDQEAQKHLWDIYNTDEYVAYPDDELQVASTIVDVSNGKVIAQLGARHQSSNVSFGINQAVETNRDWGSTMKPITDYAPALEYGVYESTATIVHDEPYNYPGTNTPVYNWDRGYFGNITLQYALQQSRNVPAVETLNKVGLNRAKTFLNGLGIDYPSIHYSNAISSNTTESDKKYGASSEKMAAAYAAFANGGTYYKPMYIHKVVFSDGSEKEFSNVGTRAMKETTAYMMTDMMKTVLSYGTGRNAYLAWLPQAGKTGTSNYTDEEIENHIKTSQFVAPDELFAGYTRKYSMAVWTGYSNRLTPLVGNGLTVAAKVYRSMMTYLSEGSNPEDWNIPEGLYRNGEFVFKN

[2] = molecular target: B1; experiment: as above; details: both partners purified

Row | Binder | Kd [1] | Kd [2]
1 | B1 | > 10 µM | 
2 | B2 |  | > 10 µM

Reference: PMC10653890, “The morphogenic protein CopD controls the spatio-temporal dynamics of PBP1a and PBP2b in Streptococcus pneumoniae” (mBio, 2023)
